Reference: patent US20240158497A1 (published 2024)

T1: Macaca Fascicularis GP130 extracellular domain expressed with a C-terminal myc-myc-hexahistidine tag (Macaca fascicularis, UniProt P40189 23-619 (human entry))
T1 construct: also called mfGP130-MMH; mfGP130-mmH
T1 chain: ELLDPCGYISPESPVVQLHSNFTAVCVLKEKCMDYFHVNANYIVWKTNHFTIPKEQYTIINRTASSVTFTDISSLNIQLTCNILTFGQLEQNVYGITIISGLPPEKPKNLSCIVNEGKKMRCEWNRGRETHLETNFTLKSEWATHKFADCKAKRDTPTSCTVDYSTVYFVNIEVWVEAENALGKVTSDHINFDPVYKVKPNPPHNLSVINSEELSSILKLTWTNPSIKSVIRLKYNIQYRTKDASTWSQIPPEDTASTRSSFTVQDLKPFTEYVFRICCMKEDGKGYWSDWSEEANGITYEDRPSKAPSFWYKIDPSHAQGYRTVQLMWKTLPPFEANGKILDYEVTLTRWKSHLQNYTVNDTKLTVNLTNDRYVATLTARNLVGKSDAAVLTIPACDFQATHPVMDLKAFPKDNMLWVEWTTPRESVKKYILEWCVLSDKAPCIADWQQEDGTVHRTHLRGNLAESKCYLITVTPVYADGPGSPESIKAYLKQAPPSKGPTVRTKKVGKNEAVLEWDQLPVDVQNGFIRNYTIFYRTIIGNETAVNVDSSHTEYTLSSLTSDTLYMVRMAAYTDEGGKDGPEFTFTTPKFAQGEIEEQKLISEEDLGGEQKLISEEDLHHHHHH


Assays:
[1] = molecular target: T2, human GP130 extracellular domain expressed with a C-terminal myc-myc-hexahistidine tag (human, UniProt P40189 23-619); assay: SPR, bsAb captured by anti-hFc, 25C
T2 construct: also called hGP130-MMH; hGP130-mmH
Protocol: (§1) Equilibrium dissociation constants (KD values) for LEPR and GP130 binding to purified anti-LEPR/GP130 bispecific antibodies were determined using a real-time surface plasmon resonance biosensor using a Biacore 4000 instrument. All binding studies were performed in 10 mM HEPES, 150 mM NaCl, 3 mM EDTA, and 0.05% v/v Surfactant Tween-20, pH 7.4 (HBS-ET) running buffer at 25° C. and 37° C. The Biacore sensor surface was first derivatized by amine coupling with a monoclonal mouse anti-human Fc antibody (GE, #BR-1008-39) to capture anti-LEPR/GP130 bispecific antibodies. […] Different concentrations of LEPR or GP130 reagents were first prepared in HBS-ET running buffer (100 nM-3.7 nM; 3-fold serial dilution) and were injected over anti-human Fc captured anti-LEPR/GP130 bispecific antibody surface for 4 minutes at a flow rate of 30 μL/minute, while the dissociation of bispecific antibody bound LEPR or GP130 reagent was monitored for 10 minutes in HBS-ET running buffer. Kinetic association (kₐ) and dissociation (kd) rate constants were determined by fitting the real-time binding sensorgrams to a 1:1 binding model with mass transport limitation using Scrubber 2.0c curve-fitting software. Binding dissociation equilibrium constants (KD) and dissociative half-lives (t ½) were calculated from the kinetic rate constants as: […]

[2] = molecular target: T1, Macaca Fascicularis GP130 extracellular …; assay: SPR, bsAb captured by anti-hFc, 25C
Protocol: as §1

[3] = molecular target: T2, human GP130 extracellular domain …; assay: SPR, bsAb captured by anti-hFc, 37C
Protocol: as §1

[4] = molecular target: T1, Macaca Fascicularis GP130 extracellular …; assay: SPR, bsAb captured by anti-hFc, 37C
Protocol: as §1

100 nM hGP130-MMH Bound (RU) [1] [RU]	Kd [1] [nM]	koff [1] [s⁻¹]	kon [1] [M⁻¹ s⁻¹]	t½ [1] [min]	100 nM mfGP130-MMH Bound (RU) [2] [RU]	Kd [2] [nM]	koff [2] [s⁻¹]	kon [2] [M⁻¹ s⁻¹]	t½ [2] [min]	100 nM hGP130-MMH Bound (RU) [3] [RU]	Kd [3] [nM]	koff [3] [s⁻¹]	kon [3] [M⁻¹ s⁻¹]	t½ [3] [min]	100 nM mfGP130-MMH Bound (RU) [4] [RU]	Kd [4] [nM]	koff [4] [s⁻¹]	kon [4] [M⁻¹ s⁻¹]	t½ [4] [min]	Binder	further results
16	20.2	0.000647	32000	18	10	43	0.0013	30100	9	27	44.6	0.00212	47600	5	14	57.9	0.00396	68300	2.9	bsAb19143D (bispecific antibody, V domains shown, LEPR x GP130 bispecific with common light chain) VH 1: QVQLVESGGGVVQPGRSLRLSCTASGFTFSSYAMYWVRQAPGKGLEWVSVIYYDGSYKYYADSVKGRFTISRDNSKNTLYLQMDSLRAEDTAVYYCASYNWNYWYFDFWGRGTLVTVSS VH 2: QLQLQESGPGLVKPSETLSLICTVSGGSISSNNYYWGWIRQPPGKGLEWIGNLYGSGSTYYNPSLKSRVTISVDTSKNQFSLKLSFVTAADTAVYHCARWDTNGGAFDIWGQGTMVTVSS VL: not shown	–
9	10.5	0.000221	21100	52	3	–	–	–	–	16	16.6	0.000373	22400	31	6	–	–	–	–	bsAb19151D (bispecific antibody, V domains shown, LEPR x GP130 bispecific with common light chain) VH 1: QVQLVESGGGVVQPGRSLRLSCTASGFTFSSYAMYWVRQAPGKGLEWVSVIYYDGSYKYYADSVKGRFTISRDNSKNTLYLQMDSLRAEDTAVYYCASYNWNYWYFDFWGRGTLVTVSS VH 2: EVQLVESGGGLVQPGGSLRLSCAASGFTFSSYAMNWVRQAPGKGLEWVSAISGSGDSTYYTDSVKGRFTISRDNSKNTLYLQMNTLRAEDTAVYYCAKEEIVMLVGATPGWFDPWGQGTLVTVSS VL: not shown	binding result [2]: no binding (tested: 100 nM)
19	17.5	0.000598	34100	19	18	17.4	0.000576	33100	20	30	32	0.00222	69200	5	29	37.6	0.00221	58800	5	bsAb19145D (bispecific antibody, V domains shown, LEPR x GP130 bispecific with common light chain) VH 1: QVQLVESGGGVVQPGRSLRLSCTASGFTFSSYAMYWVRQAPGKGLEWVSVIYYDGSYKYYADSVKGRFTISRDNSKNTLYLQMDSLRAEDTAVYYCASYNWNYWYFDFWGRGTLVTVSS VH 2: EVQLVESGGGLVQPGRSLRLSCAASGFTLDDFAMHWVRQAPGKGLEWVSGISWNSGNIGYADSVKGRFTISRDNARNSLYLQMNSLRAEDTALYYCTSGYYLYYAMDVWGQGTTVTVSS VL: not shown	–
24	1.62	0.000419	258000	28	23	1.73	0.000396	229000	29	33	3.95	0.00126	319000	9	32	4.33	0.00123	284000	9	bsAb19153D (bispecific antibody, V domains shown, LEPR x GP130 bispecific with common light chain) VH 1: QVQLVESGGGVVQPGRSLRLSCTASGFTFSSYAMYWVRQAPGKGLEWVSVIYYDGSYKYYADSVKGRFTISRDNSKNTLYLQMDSLRAEDTAVYYCASYNWNYWYFDFWGRGTLVTVSS VH 2: QVQLVQSGAEVMKPGASVKVSCRASGYTFSSYDINWVRQAPGQGLEWMGWISTATGNTNYPQKVQGRVTMTTDTSTNTAYMELRSLRSDDTAVYYCTREGNSKGWLDPWGQGTLVTVSS VL: not shown	–
31	0.448	0.000273	609000	42	31	0.513	0.000258	502000	45	53	0.901	0.000641	712000	18	53	0.959	0.000626	653000	18	bsAb19146D (bispecific antibody, V domains shown, LEPR x GP130 bispecific with common light chain) VH 1: QVQLVESGGGVVQPGRSLRLSCTASGFTFSSYAMYWVRQAPGKGLEWVSVIYYDGSYKYYADSVKGRFTISRDNSKNTLYLQMDSLRAEDTAVYYCASYNWNYWYFDFWGRGTLVTVSS VH 2: QVQLVQSGPEVKKPGSSVKVSCKASGGTIDRNEITWVRQAPGQGLEWMGVIIPILGEAHYERKFQGRLTITMDESTSTAYMELSNLRSEDTAVYYCARERAARGYLDYWGQGTLVTVSS VL: not shown	–
35	57.4	0.0113	196000	1	52	18.8	0.00553	295000	2.1	28	89.1	0.0363	407000	0.3	51	51.6	0.0177	342000	0.7	bsAb19152D (bispecific antibody, V domains shown, LEPR x GP130 bispecific with common light chain) VH 1: QVQLVESGGGVVQPGRSLRLSCTASGFTFSSYAMYWVRQAPGKGLEWVSVIYYDGSYKYYADSVKGRFTISRDNSKNTLYLQMDSLRAEDTAVYYCASYNWNYWYFDFWGRGTLVTVSS VH 2: EVQLVQSGAEVKKPGESLKISCKGSGYSFTSYWIDWVRQMPGKGLEWMGIIYPDDSDTRYSPSFQGQVTMSVDKSISTAYLQWSSLKASDTAIYYCARHERGIVEAGTDYYYYYGMDVWGQGTTVTVSS VL: not shown	–
27	12.1	0.000777	64300	15	27	13.4	0.000762	56700	15	42	10.6	0.00188	177000	6	41	10.9	0.00183	168000	6	bsAb19144D (bispecific antibody, V domains shown, LEPR x GP130 bispecific with common light chain) VH 1: QVQLVESGGGVVQPGRSLRLSCTASGFTFSSYAMYWVRQAPGKGLEWVSVIYYDGSYKYYADSVKGRFTISRDNSKNTLYLQMDSLRAEDTAVYYCASYNWNYWYFDFWGRGTLVTVSS VH 2: QVQLVQSGAEVKKPGASVKVSCKASGYTFTSLGISWVRQAPGQGLEWMGWISAYSGNRDYAQKFQGRVTMTTDTSTSTAYMELRSLRSDDTAVYYCARSLRFDYWGQGTLVTVSS VL: not shown	–
47	14	0.0048	342000	2.4	44	16.8	0.00519	308000	2.2	52	15.4	0.00665	433000	1.7	46	19.3	0.00773	401000	1.5	bsAb19150D (bispecific antibody, V domains shown, LEPR x GP130 bispecific with common light chain) VH 1: QVQLVESGGGVVQPGRSLRLSCTASGFTFSSYAMYWVRQAPGKGLEWVSVIYYDGSYKYYADSVKGRFTISRDNSKNTLYLQMDSLRAEDTAVYYCASYNWNYWYFDFWGRGTLVTVSS VH 2: EVQLVESGGGLVQSGGSLRLSCAASGFTFSRYEMNWVRQAPGKGLEWVAYISNTGTTRDYSDSVKGRFTISRDNAKNSLYLQMSSLRVEDTAVYYCVREKFSGTSDWFDPWGQGTLVTVSS VL: not shown	–
